T1: human matriptase-2 mask ECD protein his tag (human, UniProt Q8IU80 78-576)
T1 construct: MTP-2 ECD without the serine protease domain, with C-terminal linker and His tag; also called headless huMTP-2 ECD 78-576 aa; headless human MTP-2 ECD
T1 sequence: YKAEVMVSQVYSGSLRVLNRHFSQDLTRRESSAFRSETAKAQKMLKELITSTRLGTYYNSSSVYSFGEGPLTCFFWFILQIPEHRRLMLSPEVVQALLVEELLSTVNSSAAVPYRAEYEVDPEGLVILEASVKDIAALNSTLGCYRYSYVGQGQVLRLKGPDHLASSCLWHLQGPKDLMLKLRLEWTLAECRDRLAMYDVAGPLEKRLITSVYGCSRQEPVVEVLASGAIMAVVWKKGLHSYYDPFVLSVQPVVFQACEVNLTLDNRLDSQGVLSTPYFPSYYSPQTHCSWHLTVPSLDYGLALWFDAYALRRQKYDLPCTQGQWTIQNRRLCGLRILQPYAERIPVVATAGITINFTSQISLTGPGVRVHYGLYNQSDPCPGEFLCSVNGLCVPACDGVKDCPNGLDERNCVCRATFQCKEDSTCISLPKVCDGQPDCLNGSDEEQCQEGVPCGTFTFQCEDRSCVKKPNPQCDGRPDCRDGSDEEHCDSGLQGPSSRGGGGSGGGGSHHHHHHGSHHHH

T2: mouse matriptase-2 ECD protein his tag (mouse, UniProt Q9DBI0 80-811)
T2 sequence: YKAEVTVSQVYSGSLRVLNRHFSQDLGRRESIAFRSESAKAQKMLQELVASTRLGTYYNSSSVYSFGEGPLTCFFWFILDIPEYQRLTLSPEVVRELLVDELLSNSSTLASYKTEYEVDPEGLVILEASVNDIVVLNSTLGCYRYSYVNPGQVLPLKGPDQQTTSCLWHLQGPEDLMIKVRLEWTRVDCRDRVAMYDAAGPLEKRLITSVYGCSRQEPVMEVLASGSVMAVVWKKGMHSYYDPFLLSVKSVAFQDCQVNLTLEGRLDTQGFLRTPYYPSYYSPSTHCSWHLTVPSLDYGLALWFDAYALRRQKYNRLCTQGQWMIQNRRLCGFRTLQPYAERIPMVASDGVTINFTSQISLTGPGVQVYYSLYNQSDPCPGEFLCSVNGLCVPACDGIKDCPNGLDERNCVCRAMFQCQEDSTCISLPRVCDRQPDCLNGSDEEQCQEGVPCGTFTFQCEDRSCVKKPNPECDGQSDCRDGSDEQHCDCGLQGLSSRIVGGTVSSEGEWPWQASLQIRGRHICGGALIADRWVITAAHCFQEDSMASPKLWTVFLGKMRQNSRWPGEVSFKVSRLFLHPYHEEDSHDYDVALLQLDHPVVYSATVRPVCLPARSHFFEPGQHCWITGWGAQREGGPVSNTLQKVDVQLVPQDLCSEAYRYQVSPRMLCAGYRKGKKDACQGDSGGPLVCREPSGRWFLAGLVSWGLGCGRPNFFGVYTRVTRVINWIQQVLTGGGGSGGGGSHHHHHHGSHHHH

T3: human MTP-2 expressed on HEK293 cells (human, UniProt Q8IU80 1-811)
T3 sequence: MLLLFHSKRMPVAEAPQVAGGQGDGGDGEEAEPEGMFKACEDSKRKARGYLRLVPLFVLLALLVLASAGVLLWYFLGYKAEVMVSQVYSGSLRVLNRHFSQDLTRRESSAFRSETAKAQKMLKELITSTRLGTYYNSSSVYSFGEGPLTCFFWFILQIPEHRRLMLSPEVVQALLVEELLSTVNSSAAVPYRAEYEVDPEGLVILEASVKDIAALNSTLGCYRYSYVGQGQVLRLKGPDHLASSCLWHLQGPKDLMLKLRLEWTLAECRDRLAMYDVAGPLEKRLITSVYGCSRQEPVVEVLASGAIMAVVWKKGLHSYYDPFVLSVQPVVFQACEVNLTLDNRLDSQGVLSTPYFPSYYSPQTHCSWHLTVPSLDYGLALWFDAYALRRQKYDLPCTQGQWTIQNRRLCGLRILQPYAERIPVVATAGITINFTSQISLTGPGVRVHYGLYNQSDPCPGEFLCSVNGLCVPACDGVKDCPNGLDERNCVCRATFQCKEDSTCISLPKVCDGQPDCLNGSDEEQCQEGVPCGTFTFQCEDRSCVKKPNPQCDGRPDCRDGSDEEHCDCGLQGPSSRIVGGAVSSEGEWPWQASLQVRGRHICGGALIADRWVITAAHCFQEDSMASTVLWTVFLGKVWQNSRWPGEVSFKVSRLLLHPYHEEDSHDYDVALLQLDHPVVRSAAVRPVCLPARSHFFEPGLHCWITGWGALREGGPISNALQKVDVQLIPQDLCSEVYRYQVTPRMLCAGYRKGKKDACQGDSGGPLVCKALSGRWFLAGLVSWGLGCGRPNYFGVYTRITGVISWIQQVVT


Experiments:
[1] = biological target: T1, human matriptase-2 mask ECD protein his …; assay: SPR (Table W)
Method: Off-rate screening was performed by surface plasmon resonance (SPR), using a Biacore 8K system (GE Healthcare). Anti-human Fc mix (˜1000 RU) were immobilised in both active and reference channels in HBS-P+ buffer (GE BR100671) pH 7.4. Anti-MTP-2 hulgG4PE antibodies were then captured for 60 sec at 10 μl/min at 1 μg/ml concentration (approximatively 35 and 50 RU were captured) only on the active channel. MTP-2 ECD protein analytes were then injected (at 100, 25, 6.25, 1.56 and 0 nM concentrations) for 120 sec (association time) at 30 μl/min and dissociation monitored for 600 sec. Multiple cycle kinetics mode was used with all 8 channels being used. Reference and background were subtracted from the sensorgrams for each antibody and data was fitted using a 1:1 interaction model in the Biacore evaluation software. Rmax, ka, kd globally fitted, RI=0.
NORI-011, NORI-008, NORI-003 and NORI-006 were all found to have cross-reactive binding to human, mouse, cyno and rat MTP-2 ECD proteins. […] The true KD value for NORI-008 could not be measured accurately for human or mouse MTP-2 due to a very slow off-rate.

[2] = biological target: T2, mouse matriptase-2 ECD protein his tag; assay: cell-based or functional assay
[3] = biological target: T3, human MTP-2 expressed on HEK293 cells; assay: cell-based or functional assay

binding result [1] | Inhibition enzymatic activity mouse MTP2 protein (IC50) [2] [nM] | Inhibition enzymatic activity human MTP2 on cells (IC50) [3] [nM] | Binder
no binding |  |  | NORI-011 (antibody, human IgG4 S228P, lambda, human IgG4PE, lambda; NORI-010 with a P124S mutation in the VH domain) heavy: not shown light: QSALTQPPSASGSPGQSVTISCTGTSSDVGFYNFVSWYQQHPDKAPKVMIYEVSKRPSGVPDRFSGSKSGNTASLTVSGLQAEDEADYYCSSYAGSNKVVFGGGTKLTVLGQPKAAPSVTLFPPSSEELQANKATLVCLISDFYPGAVTVAWKADSSPVKAGVETTTPSKQSNNKYAASSYLSLTPEQWKSHRSYSCQVTHEGSTVEKTVAPTECS
 | 3.59 | 0.619 | NORI-013 (antibody, human IgG4 S228P, lambda, V domains shown, human IgG4PE, lambda) VH: EVQLVESGGGLIQAGRSLRLSCAASGFTFDEHVIYWVRQIPGKGLEWISSISWKSDIIAYADSVKGRFTISRDNAKNALYLQMNSLRAEDTALYYCAREKDGDFYYYYFAMDVWGQGTTVTVSS VL: QSALTQPPSASGSPGQSVTLSCTGTSSDVGYYNYVSWYLQHPGKAPKLMIYEVSKRPSGVPDRFSGSKSANTASLTVSGLQAEDEADYYCSSYAGSNKVVFGGGTKVTVLG
 | 8.5 | 0.532 | NORI-014 (antibody, human IgG4 S228P, lambda, V domains shown, human IgG4PE, lambda) VH: EVQLVESGGGLIQAGRSLRLSCAASGFTFDEHVMYWVRQIPGKGLEWISSITWKSDIIAYADSVKGRFTISRDNAKNALYLQMNSLRAEDTALYYCAREKDGDFYYYYFAMDVWGQGTTVTVSS VL: QSALTQPPSASGSPGQSVTLSCTGTSSDVGYYNYVSWYLQHPGKAPKLMIYEVSKRPSGVPDRFSGSKSANTASLTVSGLQAEDEADYYCSSYAGSNKVVFGGGTKVTVLG
no binding | 22.9 |  | NORI-006 (antibody, human IgG4 S228P, kappa, V domains shown, human IgG4PE, kappa) VH: EVQLVESGGGLIKPGRSLRLSCTGSGFTFGDFGLSWFRQAPGKGLEWISFIRSKPYGGTTDYAASVKGRFTISRDDSKNVAYLQMNSLKTEDTAVYYCARNEILTGYYIFDYWGQGTLVTVSS VL: DIQMTQSPSSLSASLGDRVTITCQASQDINNYLNWYQVQPGKAPKLLIFDASILETGVPSRFSGSGSGTDFSFTISSLQPEDIATYYCQQYDNLPLTFGGGTKVDFKR
no binding |  |  | NORI-003 (antibody, human IgG4 S228P, kappa, V domains shown, human IgG4PE, kappa; NORI-002 with the free cysteine of the VH domain mutated (printed as 'C49C')) VH: EVQLVESGGGLVKPGRSLRLSCTGSGFTFGDFGMSWFRQAPGKGLEWVGFIRSKPYGGTTDYAPSVRGRFSISRDDSKGIVYLQMNSLRTEDTAVYYCSRNEILTGYYIFDYWGQGTLVTVSS VL: DIQMTQSPSSLSASLGDRVTITCQASHDITNYLIWYQQKPGKAPRLLIFDASILETGVPSRFSGSGSGTDFTFTISSLQPEDFATYYCQQYYNLPLTFGGGTKVDIKR
no binding | 1.5 | 0.0839 | NORI-008 (antibody, human IgG4 S228P, kappa, V domains shown, human IgG4PE, kappa, in the in vitro assays; a mouse IgG1 format was used in one in vivo study only; also called NORI-008 hulgG4PE; NORI-008 IgG) VH: QVQLQESGPGLVKPSETLSLTCSVSGGSVSSGRYYWTWIRQPPGKGLEWIGYISNSGNTNYNPSLKSRVTISLDTSKKQFSLSLSAVTAADTAVYYCARGFIYDYWFDPWGQGSLVTVSS VL: DSQMTQSPSSLSASVGDRVTITCQASQDIDNYLNWYQQRPGKAPKLLIYDASKLETGVPSRFSGSGSGTDFTFTISSLQPEDFATYYCQQYGNLPITFGQGTRLDIKR

Reference: patent publication US20230025129A1 (KYMAB, published 2023)
